Results from patent US20190062442A1 (AstraZeneca / MedImmune, published 2019).
Substitutions are numbered along the chain they refer to.

How the values were obtained:
[1] = target: T1, FLAG-tagged human PrP^c_N1 (recombinant N-terminal fragment of cellular prion protein, 23-111 amino-acids) (human, UniProt P04156 23-111)
T1 sequence: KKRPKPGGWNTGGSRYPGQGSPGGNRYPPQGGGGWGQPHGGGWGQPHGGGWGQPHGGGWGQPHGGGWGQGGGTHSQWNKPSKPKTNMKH

[2] = target: T2, Human PrP^c_N1_Flag His protein (human, UniProt P04156 23-111)
T2 sequence: T1 sequence

[3] = target: T3, FLAG-tagged Cynomolgus PrP^c_N1 (cynomolgus monkey, UniProt P67992 23-111); assay: direct HTRF binding assay
T3 sequence: T1 sequence with S75N, N78H, N86S

[4] = target: full length cynomolgus PrP^c present on the cynomolgus CynoMK-1 cell line (cynomolgus monkey, UniProt P67992 23-230); assay: flow cytometry, antibody at 5 µg/ml

B1: PrP^c-O0059 Hu IgG1 (antibody, V domains shown)
VH: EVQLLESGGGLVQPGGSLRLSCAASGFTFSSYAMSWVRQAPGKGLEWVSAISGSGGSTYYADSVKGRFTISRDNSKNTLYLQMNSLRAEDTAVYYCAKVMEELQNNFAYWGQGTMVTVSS
VL: QSVLTQPPSASGTPGQRVTISCSGERSDIGINYVSWYQQLPGTAPKLLIYTDDRRPPGVPDRFSASKSGTSASLAISGLRSEDEADYYCEAWHDVLGHPVFGGGTKLTVL
[1]
  IC50: 0.225 nM
[2]
  Kd: 0.0235 nM
  koff: 1.33e-05 s⁻¹
  kon: 564000 M⁻¹ s⁻¹
[3]
  binding result: binds
[4]
  binding result: binds
